Test results reported in US6800470B2, “Mammalian sphingosine kinase type 2 isoforms, cloning, expression and methods of use thereof” (Sankyo Company, Ltd., priority 2000, dated 2004).

T1: mSPHK2 (Mus musculus, UniProt Q9JIA7)
T1 construct: The open reading frames of mSPHK2 and hSPHK2 encode polypeptides of 617 and 618 amino acids, respectively; made in house; host or cells: HEK293 (ATCC CRL-1573), transient transfection; unpurified cytosol or whole lysate
T1 sequence (Q9JIA7 1-617): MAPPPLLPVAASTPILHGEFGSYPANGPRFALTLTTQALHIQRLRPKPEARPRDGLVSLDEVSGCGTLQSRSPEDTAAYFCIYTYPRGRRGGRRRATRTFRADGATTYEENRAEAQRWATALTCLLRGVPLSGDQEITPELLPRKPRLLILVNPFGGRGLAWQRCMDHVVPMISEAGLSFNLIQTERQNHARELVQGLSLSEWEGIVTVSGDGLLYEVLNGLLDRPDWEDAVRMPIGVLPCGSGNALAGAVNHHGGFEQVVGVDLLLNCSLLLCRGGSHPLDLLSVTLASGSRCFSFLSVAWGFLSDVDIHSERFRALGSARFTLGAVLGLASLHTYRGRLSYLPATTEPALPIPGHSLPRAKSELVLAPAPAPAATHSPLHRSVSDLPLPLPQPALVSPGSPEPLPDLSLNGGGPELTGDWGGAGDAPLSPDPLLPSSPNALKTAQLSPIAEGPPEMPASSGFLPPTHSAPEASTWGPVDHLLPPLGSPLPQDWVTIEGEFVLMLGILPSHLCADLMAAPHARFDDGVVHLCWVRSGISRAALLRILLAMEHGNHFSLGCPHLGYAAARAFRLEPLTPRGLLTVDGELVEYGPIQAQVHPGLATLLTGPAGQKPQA


Key:
[1] = substrate: CCCCCCCCCCCCC/C=C/[C@@H](O)[C@@H](N)CO; experiment: SPHK activity assay with recombinant mSPHK2 (cytosol/lysates of transfected HEK293 cells, [g-32P]ATP, TLC); assay type: biochemical, mouse; conditions: other: recombinant SPHK2
Experimental: HEK293 cells were seeded at 6×10^5 per well in poly-L-lysine coated 6 well plates. […] SPHK activity was determined in the presence of sphingosine, prepared as a complex with 4 mg/ml BSA, and [g-32P] […] 32P-SPP was separated by TLC and quantified with a phosphoimager as previously described.

[2] = biological target: T1, mSPHK2; experiment: as above; assay type: biochemical; conditions: cytosolic activity, kinase buffer of adjusted pH
Experimental: Lanes: 1, D-erythro-sphingosine (“D-erythro-Sph”); 2, D-erythro-dihydrosphingosine (“D-erythro-DHS”); 3, D, L-threo-DHS; 4, N,N-dimethylsphingosine (“DMS”); 5, C2-ceramide; 6, C16-ceramide; 7, diacylglycerol; 8, phosphatidylinositol; 9, phytosphingosine. Data are expressed as percentage of phosphorylation of D-erythro-Sph.
SPHK activity in HEK293 cell lysates after transfection as in FIG. 4A was measured with 10 μM D-erythro-sphingosine in the presence of increasing concentrations of DMS.
SPHK activity was measured with varying concentrations of D-erythro-sphingosine in the absence (open circles) or presence of 10 μM (filled squares) or 20 μM DMS (filled triangles).
FIG. 4D are Lineweaver-Burk plots.
In FIGS. 5B and 5C, the SPHK activity in HEK293 cell lysates was measured 24 hours after transfection with mSPHK1 (FIG. 5B) or mSPHK2 (FIG. 5C) in the absence or presence of increasing concentrations of NaCl (open squares) or KCl (filled circles).
FIG. 5E are Lineweaver-Burk plots of data from FIG. 5D.
HEK293 cells were transfected with mSPHK1a (open circles) or mSPHK2 (filled circles) and the activities of each in cell lysates were measured after 24 hours in the presence of the indicated concentrations of Triton X-100 (FIG. 6A) or BSA (FIG. 6B).
HEK293 cells were transfected with mSPHK1a (circles) or mSPHK2 (triangles) and the activities of each in cell lysates were measured after 24 hours in the presence of the indicated concentrations of phosphatidylserine (filled symbols) or phosphatidylcholine (open symbols). Data are expressed as percentage of control activity measured without any additions.
(§1) Human embryonic kidney cells (HEK293, ATCC CRL-1573) and NIH 3T3 fibroblasts (ATCC CRL-1658) were cultured as described in Olivera, A., Kohama, T., Edsall, L. C., Nava, V., Cuvillier, O., Poulton, S., and Spiegel, S., J. Cell Biol., 147 (1999) 545-558. HEK293 cells were seeded at 6×10^5 per well in poly-L-lysine coated 6 well plates. After 24 hours, cells were transfected with 1 μg of vector alone or with vectors containing sphingosine kinase constructs and 6 μl of “Lipofectamine PLUS” reagent plus 4 μl of “Lipofectamine” reagent per well. One to three days after transfection, cells were harvested and lysed by freeze-thawing as described in Kohama, T., Olivera, A., Edsall, L., Nagiec, M. M., Dickson, R., and Spiegel, S., J. Biol. Chem., 273, (1998), 23722-23728. In some experiments, cell lysates were fractionated into cytosol and membrane fractions by centrifugation at 100,000×g for 60 minutes. SPHK activity was determined in the presence of sphingosine, prepared as a complex with 4 mg/ml BSA, and [g-32P] ATP in kinase buffer (Olivera, A. and Spiegel, S. in Methods in Molecular Biology, (Bird, I. M. ed.), (1998), Vol. 105, 233-242, Humana Press, Inc., Totowa, N.J.), containing 200 mM KCl, unless indicated otherwise. 32P-SPP was separated by TLC and quantified with a phosphoimager as previously described.

[3] = test system: HEK293 cells; experiment: SPHK activity in HEK293 cells transiently transfected with SPHK expression vectors (cytosol and particulate fractions); assay type: cell-based, human; conditions: 24 hours after transfection of HEK293 cells
Experimental: In FIG. 3A, HEK 293 cells were transiently transfected with an empty vector or with mSPHK2 or hSPHK2 expression vectors. After 24 hours, SPHK activity was measured in cytosol (open bars) and particulate fractions (filled bars). The data are means±S.D. Parental and vector-transfected cells had basal SPHK activities of 26 and 37 pmol/min/mg, respectively.
as §1

[4] = test system: HEK293 cells; experiment: Mass levels of SPP in HEK293 cells after transfection with SPHK2; assay type: cell-based, human; conditions: HEK 293 cells after transfection
Experimental: Mass levels of SPP in HEK293 cells transfected with an empty vector (open bars) or with mSPHK2 (filled bars) or with hSPHK2 (hatched bars) were measured as described hereinbelow. The data are expressed as pmol/nmol phospholipid.
Cells were washed with PBS and scraped in 1 ml of methanol containing 2.5 μl concentrated HCl. Lipids were extracted by adding 2 ml chloroform/1M NaCl (1:1, v/v) and 100 μl 3N NaOH and phases separated. The basic aqueous phase containing SPP, and devoid of sphingosine, ceramide, and the majority of phospholipids, was transferred to a siliconized glass tube. The organic phase was re-extracted with 1 ml methanol/1M NaCl (1:1, v/v) plus 50 μl 3N NaOH, and the aqueous fractions were combined. Mass measurement on SPP in the aqueous phase and total phospholipids in the organic phase were measured exactly as described in Edsall, L. C., Pirianov, G. G., and Spiegel, S., J. Neurosci., 17, (1997) 6952-6960; Edsall, L. C., and Spiegel, S., Anal. Biochem., 272, (1999) 80-86).

Molecule	Km [1]	pH of optimal activity [2]	increase of in vitro SPHK activity over basal levels [3]	increase in SPP [4]
mSPHK2 (Mus musculus) (protein, The open reading frames of mSPHK2 and hSPHK2 encode polypeptides of 617 and 618 amino acids, respectively; made in house; host or cells: HEK293 (ATCC CRL-1573), transient transfection; unpurified cytosol or whole lysate) MAPPPLLPVAASTPILHGEFGSYPANGPRFALTLTTQALHIQRLRPKPEARPRDGLVSLDEVSGCGTLQSRSPEDTAAYFCIYTYPRGRRGGRRRATRTFRADGATTYEENRAEAQRWATALTCLLRGVPLSGDQEITPELLPRKPRLLILVNPFGGRGLAWQRCMDHVVPMISEAGLSFNLIQTERQNHARELVQGLSLSEWEGIVTVSGDGLLYEVLNGLLDRPDWEDAVRMPIGVLPCGSGNALAGAVNHHGGFEQVVGVDLLLNCSLLLCRGGSHPLDLLSVTLASGSRCFSFLSVAWGFLSDVDIHSERFRALGSARFTLGAVLGLASLHTYRGRLSYLPATTEPALPIPGHSLPRAKSELVLAPAPAPAATHSPLHRSVSDLPLPLPQPALVSPGSPEPLPDLSLNGGGPELTGDWGGAGDAPLSPDPLLPSSPNALKTAQLSPIAEGPPEMPASSGFLPPTHSAPEASTWGPVDHLLPPLGSPLPQDWVTIEGEFVLMLGILPSHLCADLMAAPHARFDDGVVHLCWVRSGISRAALLRILLAMEHGNHFSLGCPHLGYAAARAFRLEPLTPRGLLTVDGELVEYGPIQAQVHPGLATLLTGPAGQKPQA	3.4 µM			
mSPHK2: murine sphingosine kinase type 2, polypeptide of 617 amino acids (SEQ ID NO 12) (protein) MAPPPLLPVAASTPILHGEFGSYPANGPRFALTLTTQALHIQRLRPKPEARPRDGLVSLDEVSGCGTLQSRSPEDTAAYFCIYTYPRGRRGGRRRATRTFRADGATTYEENRAEAQRWATALTCLLRGVPLSGDQEITPELLPRKPRLLILVNPFGGRGLAWQRCMDHVVPMISEAGLSFNLIQTERQNHARELVQGLSLSEWEGIVTVSGDGLLYEVLNGLLDRPDWEDAVRMPIGVLPCGSGNALAGAVSHHGGFEQVVGVDLLLNCSLLLCRGGSHPLDLLSVTLASGSRCFSFLSVAWGFLSDVDIHSERFRALGSARFTLGAVLGLASLHTYRGRLSYLPATTEPALPIPGHSLPRAKSELVLAPAPAPAATHSPLHRSVSDLPLPLPQPALVSPGSPEPLPDLSLNGGGPELTGDWGGAGDAPLSPDPLLPSSPNALKTAQLSPIAEGPPEMPASSGFLPPTHSAPEASTWGPVDHLLPPLGSPLPQDWVTIEGEFVLMLGILTSHLCADLMAAPHARFDDGVVHLCWVRSGISRAALLRIFLAMEHGNHFSLGCPHLGYAAARAFRLEPLTPRGLLTVDGELVEYGPIQAQVHPGLATLLTGPAGQKPQA		7.5	20 fold	2.2 fold
